Substrate in series [1]: CC(C)OC(=O)[C@H](C)N[P@](=O)(CO[C@H](C)Cn1cnc2c(N)ncnc21)Oc1ccccc1
The experiment in a line: Ratio of kcat to Km for Cat A activity. The note with it: Homo sapiens.

Substrate in series [2]: CC(C)OC(=O)[C@H](C)N[P@](=O)(CO[C@H](C)Cn1cnc2c(N)ncnc21)Oc1ccccc1
Briefly: Activity of Cat A assessed as hydrolysis. The note with it: Homo sapiens.

The text below walks through data of ChEMBL document CHEMBL1142204, “Cathepsin A is the major hydrolase catalyzing the intracellular hydrolysis of the antiretroviral nucleotide phosphonoamidate prodrugs GS-7340 and GS-9131” (Antimicrob Agents Chemother, 2007).

B1: Lysosomal protective protein (Homo sapiens), P10619 (protein)
chain: MIRAAPPPLFLLLLLLLLLVSWASRGEAAPDQDEIQRLPGLAKQPSFRQYSGYLKGSGSKHLHYWFVESQKDPENSPVVLWLNGGPGCSSLDGLLTEHGPFLVQPDGVTLEYNPYSWNLIANVLYLESPAGVGFSYSDDKFYATNDTEVAQSNFEALQDFFRLFPEYKNNKLFLTGESYAGIYIPTLAVLVMQDPSMNLQGLAVGNGLSSYEQNDNSLVYFAYYHGLLGNRLWSSLQTHCCSQNKCNFYDNKDLECVTNLQEVARIVGNSGLNIYNLYAPCAGGVPSHFRYEKDTVVVQDLGNIFTRLPLKRMWHQALLRSGDKVRMDPPCTNTTAASTYLNNPYVRKALNIPEQLPQWDMCNFLVNLQYRRLYRSMNSQYLKLLSSQKYQILLYNGDVDMACNFMGDEWFVDSLNQKMEVQRRPWLVKYGDSGEQIAGFVKEFSHIAFLTIKGAGHMVPTDKPLAAFTMFSRFLNKQPY
The term kcat/Km denotes the turnover number divided by the Michaelis constant. A word on the Km: it is the concentration of substrate that gives half-maximal velocity. As to B1, in series [1], the kcat/Km came out at 2.9e+06 M⁻¹ s⁻¹. Also, the Km in series [2] worked out at 610 µM.
